In the supplement of paper PMC10065799, “High-throughput profiling of sequence recognition by tyrosine kinases and SH2 domains using bacterial peptide display” (eLife, 2023):
Blank lines part the entries; values can stand above or below the sequence they belong to.

Legend:
[1] = molecular target: MERTK (UniProt Q12866); assay: phosphorylation enrichment, bacterial display (enrichment ratio); higher = better substrate or ligand; peptides without Tyr show the background
[2] = molecular target: EPHB1 (UniProt P54762); assay: as above
Sequence of EPHB1 (P54762 whole entry, looked up): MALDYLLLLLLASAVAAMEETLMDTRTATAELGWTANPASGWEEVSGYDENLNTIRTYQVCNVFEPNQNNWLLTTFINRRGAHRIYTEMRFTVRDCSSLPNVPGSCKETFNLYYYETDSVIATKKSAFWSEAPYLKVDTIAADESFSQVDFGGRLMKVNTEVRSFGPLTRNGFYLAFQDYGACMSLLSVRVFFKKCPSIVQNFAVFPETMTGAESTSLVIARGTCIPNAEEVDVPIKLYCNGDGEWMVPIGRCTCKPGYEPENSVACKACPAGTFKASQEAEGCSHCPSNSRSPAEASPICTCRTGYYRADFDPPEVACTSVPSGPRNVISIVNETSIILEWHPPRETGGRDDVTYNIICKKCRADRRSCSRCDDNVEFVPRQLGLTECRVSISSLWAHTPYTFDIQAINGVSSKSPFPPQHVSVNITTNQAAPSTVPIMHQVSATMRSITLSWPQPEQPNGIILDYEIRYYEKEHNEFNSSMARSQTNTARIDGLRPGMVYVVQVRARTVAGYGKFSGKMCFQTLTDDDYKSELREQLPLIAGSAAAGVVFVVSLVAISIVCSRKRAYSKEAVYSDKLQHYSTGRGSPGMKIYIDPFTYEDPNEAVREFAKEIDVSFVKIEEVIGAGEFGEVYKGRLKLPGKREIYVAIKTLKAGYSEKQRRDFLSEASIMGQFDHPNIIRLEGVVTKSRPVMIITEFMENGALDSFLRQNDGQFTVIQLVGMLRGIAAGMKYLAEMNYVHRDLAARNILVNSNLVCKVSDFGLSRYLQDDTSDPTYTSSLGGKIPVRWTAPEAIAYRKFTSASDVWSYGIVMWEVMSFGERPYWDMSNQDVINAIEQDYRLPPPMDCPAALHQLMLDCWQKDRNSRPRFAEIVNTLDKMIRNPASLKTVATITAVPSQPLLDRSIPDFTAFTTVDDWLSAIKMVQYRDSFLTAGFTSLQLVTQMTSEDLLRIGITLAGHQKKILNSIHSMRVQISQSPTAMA

[3] = molecular target: FGFR1 (UniProt P11362); assay: as above
[4] = molecular target: EPHB2 (UniProt P29323); assay: as above
Sequence of EPHB2 (P29323 whole entry, looked up): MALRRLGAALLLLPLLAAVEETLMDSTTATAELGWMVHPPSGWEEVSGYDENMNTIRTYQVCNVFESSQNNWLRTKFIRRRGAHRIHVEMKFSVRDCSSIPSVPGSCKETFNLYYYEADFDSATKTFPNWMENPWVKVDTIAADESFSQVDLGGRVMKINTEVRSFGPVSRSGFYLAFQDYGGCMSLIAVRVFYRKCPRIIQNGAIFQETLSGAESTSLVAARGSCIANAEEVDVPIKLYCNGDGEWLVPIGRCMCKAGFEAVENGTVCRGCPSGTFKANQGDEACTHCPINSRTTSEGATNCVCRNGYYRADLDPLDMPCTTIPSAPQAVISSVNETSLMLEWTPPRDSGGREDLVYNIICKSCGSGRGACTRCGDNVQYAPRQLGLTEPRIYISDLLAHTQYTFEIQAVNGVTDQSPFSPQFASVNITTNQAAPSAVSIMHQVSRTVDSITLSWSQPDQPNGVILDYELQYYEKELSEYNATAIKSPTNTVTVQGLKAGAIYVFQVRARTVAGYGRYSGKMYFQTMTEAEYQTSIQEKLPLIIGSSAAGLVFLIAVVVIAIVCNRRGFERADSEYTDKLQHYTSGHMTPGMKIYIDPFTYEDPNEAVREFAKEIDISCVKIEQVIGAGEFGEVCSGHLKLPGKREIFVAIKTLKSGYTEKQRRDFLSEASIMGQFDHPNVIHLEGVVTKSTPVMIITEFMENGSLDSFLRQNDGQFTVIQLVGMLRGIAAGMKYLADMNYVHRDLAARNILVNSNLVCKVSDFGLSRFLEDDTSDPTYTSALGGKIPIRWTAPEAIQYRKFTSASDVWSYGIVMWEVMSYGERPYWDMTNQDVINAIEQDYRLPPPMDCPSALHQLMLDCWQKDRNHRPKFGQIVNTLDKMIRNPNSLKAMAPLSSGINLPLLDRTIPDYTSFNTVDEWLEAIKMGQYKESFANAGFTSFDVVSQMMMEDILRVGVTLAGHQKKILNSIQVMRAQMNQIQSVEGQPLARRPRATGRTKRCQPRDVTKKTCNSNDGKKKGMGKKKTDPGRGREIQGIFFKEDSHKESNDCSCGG

[5] = molecular target: Fes (UniProt P07332); assay: as above
Sequence of Fes (P07332 whole entry, looked up): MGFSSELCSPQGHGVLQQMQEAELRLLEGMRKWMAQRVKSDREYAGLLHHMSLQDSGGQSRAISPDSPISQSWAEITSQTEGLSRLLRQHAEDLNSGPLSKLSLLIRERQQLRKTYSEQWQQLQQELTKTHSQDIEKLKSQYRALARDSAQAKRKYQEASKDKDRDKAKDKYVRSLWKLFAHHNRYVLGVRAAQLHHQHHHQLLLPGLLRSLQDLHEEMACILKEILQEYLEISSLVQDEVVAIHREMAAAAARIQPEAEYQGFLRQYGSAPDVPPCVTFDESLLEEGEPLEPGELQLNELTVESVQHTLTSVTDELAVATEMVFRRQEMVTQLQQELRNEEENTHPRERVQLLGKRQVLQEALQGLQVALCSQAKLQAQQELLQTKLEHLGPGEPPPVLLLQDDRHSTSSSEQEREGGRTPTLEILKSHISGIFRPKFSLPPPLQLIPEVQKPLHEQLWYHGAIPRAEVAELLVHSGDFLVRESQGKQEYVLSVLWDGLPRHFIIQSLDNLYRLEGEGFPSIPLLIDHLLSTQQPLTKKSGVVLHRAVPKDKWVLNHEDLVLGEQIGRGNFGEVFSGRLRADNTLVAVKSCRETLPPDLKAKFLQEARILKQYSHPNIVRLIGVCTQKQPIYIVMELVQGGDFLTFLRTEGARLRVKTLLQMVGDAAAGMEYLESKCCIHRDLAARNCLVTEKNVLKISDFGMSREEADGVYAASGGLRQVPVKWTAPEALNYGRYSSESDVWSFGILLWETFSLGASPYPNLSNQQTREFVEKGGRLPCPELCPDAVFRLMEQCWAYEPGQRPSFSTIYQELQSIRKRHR

[6] = tested on: c-Src; assay: as above
[7] = molecular target: Jak2 (UniProt O60674); assay: as above
Sequence of Jak2 (O60674 whole entry, looked up): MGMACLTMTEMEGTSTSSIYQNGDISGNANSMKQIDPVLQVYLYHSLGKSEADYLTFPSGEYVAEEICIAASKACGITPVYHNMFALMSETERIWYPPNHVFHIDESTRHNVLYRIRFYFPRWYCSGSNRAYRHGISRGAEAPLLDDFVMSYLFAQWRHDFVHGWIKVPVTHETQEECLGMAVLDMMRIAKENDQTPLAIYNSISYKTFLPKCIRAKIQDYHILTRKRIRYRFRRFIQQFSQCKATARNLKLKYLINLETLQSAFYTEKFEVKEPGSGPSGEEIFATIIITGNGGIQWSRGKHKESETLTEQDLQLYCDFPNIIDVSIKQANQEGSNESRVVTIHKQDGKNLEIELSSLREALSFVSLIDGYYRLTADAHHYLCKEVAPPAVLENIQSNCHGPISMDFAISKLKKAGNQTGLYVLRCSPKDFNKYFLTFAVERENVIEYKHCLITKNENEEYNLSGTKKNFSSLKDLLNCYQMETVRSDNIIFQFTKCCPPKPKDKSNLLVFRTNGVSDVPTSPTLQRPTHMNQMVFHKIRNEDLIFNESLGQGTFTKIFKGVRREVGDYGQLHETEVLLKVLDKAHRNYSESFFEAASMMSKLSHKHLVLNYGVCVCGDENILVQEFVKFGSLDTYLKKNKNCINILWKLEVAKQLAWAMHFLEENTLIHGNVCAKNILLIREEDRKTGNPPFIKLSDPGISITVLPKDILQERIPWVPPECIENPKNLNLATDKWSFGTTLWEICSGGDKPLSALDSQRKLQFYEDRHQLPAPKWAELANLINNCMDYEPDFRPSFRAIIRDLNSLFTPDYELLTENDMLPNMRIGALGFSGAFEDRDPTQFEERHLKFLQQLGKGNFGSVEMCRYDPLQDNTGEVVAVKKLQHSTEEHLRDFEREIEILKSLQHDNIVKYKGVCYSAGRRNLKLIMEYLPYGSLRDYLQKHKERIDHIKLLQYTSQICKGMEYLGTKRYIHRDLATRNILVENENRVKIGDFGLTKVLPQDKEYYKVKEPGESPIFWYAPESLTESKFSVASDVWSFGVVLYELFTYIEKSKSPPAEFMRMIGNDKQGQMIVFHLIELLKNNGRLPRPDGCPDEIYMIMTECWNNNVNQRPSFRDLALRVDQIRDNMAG

[8] = molecular target: Fyn (UniProt P06241); assay: as above
Sequence of Fyn (P06241 whole entry, looked up): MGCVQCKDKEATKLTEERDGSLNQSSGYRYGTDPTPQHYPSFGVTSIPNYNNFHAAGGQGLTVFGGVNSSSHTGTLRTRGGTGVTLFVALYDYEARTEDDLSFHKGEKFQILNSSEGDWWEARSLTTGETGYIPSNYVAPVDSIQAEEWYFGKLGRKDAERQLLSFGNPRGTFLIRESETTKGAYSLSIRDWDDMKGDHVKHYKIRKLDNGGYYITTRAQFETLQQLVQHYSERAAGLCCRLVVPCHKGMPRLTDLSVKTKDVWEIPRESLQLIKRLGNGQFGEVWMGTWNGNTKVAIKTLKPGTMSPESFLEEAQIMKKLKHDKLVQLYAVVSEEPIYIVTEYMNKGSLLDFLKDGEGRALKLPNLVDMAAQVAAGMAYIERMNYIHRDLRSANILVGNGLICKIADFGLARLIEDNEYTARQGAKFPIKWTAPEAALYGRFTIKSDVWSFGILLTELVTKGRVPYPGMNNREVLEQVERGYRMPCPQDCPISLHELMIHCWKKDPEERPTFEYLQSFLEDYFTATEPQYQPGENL

[9] = tested on: AncSZ; assay: as above
[10] = molecular target: Hck (UniProt P08631); assay: as above
Sequence of Hck (P08631 whole entry, looked up): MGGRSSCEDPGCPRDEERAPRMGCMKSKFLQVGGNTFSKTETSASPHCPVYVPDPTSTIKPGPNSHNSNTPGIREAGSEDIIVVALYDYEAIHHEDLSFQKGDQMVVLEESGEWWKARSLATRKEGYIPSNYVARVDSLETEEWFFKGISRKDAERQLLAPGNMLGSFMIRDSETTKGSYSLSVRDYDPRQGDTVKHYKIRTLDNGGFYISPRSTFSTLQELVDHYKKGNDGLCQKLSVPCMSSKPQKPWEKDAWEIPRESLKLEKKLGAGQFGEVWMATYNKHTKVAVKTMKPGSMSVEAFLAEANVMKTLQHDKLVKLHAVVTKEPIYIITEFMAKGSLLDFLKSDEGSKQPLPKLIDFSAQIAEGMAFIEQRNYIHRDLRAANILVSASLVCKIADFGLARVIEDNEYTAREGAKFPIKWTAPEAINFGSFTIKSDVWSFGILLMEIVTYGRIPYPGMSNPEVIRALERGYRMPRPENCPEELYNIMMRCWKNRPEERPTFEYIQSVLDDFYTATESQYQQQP

[11] = molecular target: FGFR3 (UniProt P22607); assay: as above
[12] = tested on: c-Abl (mouse); assay: as above
[13] = tested on: Fer (mouse); assay: as above
[14] = molecular target: c-Src SH2; assay: SH2 binding enrichment of the phosphorylated peptide, bacterial display (enrichment ratio); higher = better substrate or ligand; peptides without Tyr show the background
[15] = molecular target: Grb2 SH2 (UniProt P62993); assay: as above
[16] = molecular target: SHP2-C SH2; assay: as above
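For SH2 binding enrichment of the phosphorylated peptide, bacterial display in this document: peptide library displayed on the E. coli surface as eCPX fusions, selected cells deep-sequenced, score is each peptide's frequency after selection divided by its frequency in the input.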
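For phosphorylation enrichment, bacterial display in this document: 11-residue human phosphosite peptides and single-mutation variants displayed on the E. coli surface, counted by deep sequencing, each peptide's frequency after selection divided by its frequency in the unselected input library; frequency after pTyr selection over input frequency; kinase dosed for 20-30% of maximal phosphorylation in three min.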

SH2 binding enrichment [14]: 0.493
SH2 binding enrichment [15]: 0.915
SH2 binding enrichment [16]: 0.598
Sequence: QEITTYRRLLE [KRT14_Y415_A413T]
phosphorylation enrichment [1]: 0.416
phosphorylation enrichment [2]: 0.619
phosphorylation enrichment [3]: 0.657
phosphorylation enrichment [4]: 0.548
phosphorylation enrichment [5]: 1.11
phosphorylation enrichment [6]: 0.649
phosphorylation enrichment [7]: 1.07
phosphorylation enrichment [8]: 0.708
phosphorylation enrichment [9]: 1.03
phosphorylation enrichment [10]: 0.542
phosphorylation enrichment [11]: 0.78
phosphorylation enrichment [12]: 0.815
phosphorylation enrichment [13]: 0.505

SH2 binding enrichment [14]: 0.539
SH2 binding enrichment [15]: 0.929
SH2 binding enrichment [16]: 0.643
Sequence: CEAVEYLESKQ [BTK_Y511_M509V]
phosphorylation enrichment [1]: 0.384
phosphorylation enrichment [2]: 0.546
phosphorylation enrichment [3]: 0.534
phosphorylation enrichment [4]: 0.802
phosphorylation enrichment [5]: 1.41
phosphorylation enrichment [6]: 0.52
phosphorylation enrichment [7]: 1.32
phosphorylation enrichment [8]: 0.443
phosphorylation enrichment [9]: 1.3
phosphorylation enrichment [10]: 0.613
phosphorylation enrichment [11]: 0.875
phosphorylation enrichment [12]: 0.738
phosphorylation enrichment [13]: 0.564

SH2 binding enrichment [14]: 0.566
SH2 binding enrichment [15]: 0.895
SH2 binding enrichment [16]: 0.93
Sequence: RVLKLYGCSPS [ASTL_Y279]
phosphorylation enrichment [1]: 0.461
phosphorylation enrichment [2]: 0.634
phosphorylation enrichment [3]: 0.367
phosphorylation enrichment [4]: 0.761
phosphorylation enrichment [5]: 0.943
phosphorylation enrichment [6]: 0.516
phosphorylation enrichment [7]: 0.983
phosphorylation enrichment [8]: 0.728
phosphorylation enrichment [9]: 1.03
phosphorylation enrichment [10]: 0.564
phosphorylation enrichment [11]: 0.608
phosphorylation enrichment [12]: 0.719
phosphorylation enrichment [13]: 0.981

SH2 binding enrichment [14]: 1.99
SH2 binding enrichment [15]: 0.757
SH2 binding enrichment [16]: 2.15
Sequence: KGTAGYTTVAV [RET_Y752_R749T]
phosphorylation enrichment [1]: 0.349
phosphorylation enrichment [2]: 0.46
phosphorylation enrichment [3]: 0.327
phosphorylation enrichment [4]: 0.362
phosphorylation enrichment [5]: 0.493
phosphorylation enrichment [6]: 0.37
phosphorylation enrichment [7]: 0.398
phosphorylation enrichment [8]: 0.359
phosphorylation enrichment [9]: 0.517
phosphorylation enrichment [10]: 0.357
phosphorylation enrichment [11]: 0.34
phosphorylation enrichment [12]: 0.448
phosphorylation enrichment [13]: 0.313

SH2 binding enrichment [14]: 0.862
SH2 binding enrichment [15]: 0.925
SH2 binding enrichment [16]: 0.755
Sequence: SARVRYLMAEK [LDHB_Y173_F171V]
phosphorylation enrichment [1]: 0.417
phosphorylation enrichment [2]: 0.46
phosphorylation enrichment [3]: 0.482
phosphorylation enrichment [4]: 0.521
phosphorylation enrichment [5]: 0.756
phosphorylation enrichment [6]: 0.38
phosphorylation enrichment [7]: 0.39
phosphorylation enrichment [8]: 0.43
phosphorylation enrichment [9]: 0.579
phosphorylation enrichment [10]: 0.423
phosphorylation enrichment [11]: 0.532
phosphorylation enrichment [12]: 0.472
phosphorylation enrichment [13]: 0.439

SH2 binding enrichment [14]: 0.987
SH2 binding enrichment [15]: 1.44
SH2 binding enrichment [16]: 1.42
Sequence: AIIGIYILRDN [CDH23_Y2949_D2954N]
phosphorylation enrichment [1]: 0.423
phosphorylation enrichment [2]: 0.687
phosphorylation enrichment [3]: 0.604
phosphorylation enrichment [4]: 0.631
phosphorylation enrichment [5]: 1.39
phosphorylation enrichment [6]: 1.68
phosphorylation enrichment [7]: 1.05
phosphorylation enrichment [8]: 0.925
phosphorylation enrichment [9]: 1.36
phosphorylation enrichment [10]: 1.6
phosphorylation enrichment [11]: 0.793
phosphorylation enrichment [12]: 0.888
phosphorylation enrichment [13]: 0.596

SH2 binding enrichment [14]: 0.567
SH2 binding enrichment [15]: 0.816
SH2 binding enrichment [16]: 0.599
Sequence: CLRIDYERVSQ [DSP_Y1542_R1537C]
phosphorylation enrichment [1]: 0.475
phosphorylation enrichment [2]: 1.48
phosphorylation enrichment [3]: 0.574
phosphorylation enrichment [4]: 1.03
phosphorylation enrichment [5]: 1.57
phosphorylation enrichment [6]: 0.517
phosphorylation enrichment [7]: 1.38
phosphorylation enrichment [8]: 0.524
phosphorylation enrichment [9]: 1.23
phosphorylation enrichment [10]: 0.631
phosphorylation enrichment [11]: 1.04
phosphorylation enrichment [12]: 0.96
phosphorylation enrichment [13]: 0.674

SH2 binding enrichment [14]: 0.461
SH2 binding enrichment [15]: 1.01
SH2 binding enrichment [16]: 0.709
Sequence: PPKFFYTRKLL [CYBB_Y41]
phosphorylation enrichment [1]: 0.766
phosphorylation enrichment [2]: 0.457
phosphorylation enrichment [3]: 1.22
phosphorylation enrichment [4]: 0.683
phosphorylation enrichment [5]: 0.801
phosphorylation enrichment [6]: 0.439
phosphorylation enrichment [7]: 0.658
phosphorylation enrichment [8]: 0.779
phosphorylation enrichment [9]: 1.12
phosphorylation enrichment [10]: 0.462
phosphorylation enrichment [11]: 0.614
phosphorylation enrichment [12]: 0.694
phosphorylation enrichment [13]: 0.513

SH2 binding enrichment [14]: 0.601
SH2 binding enrichment [15]: 1.04
SH2 binding enrichment [16]: 0.634
Sequence: ADYYDYGHGLS [KHDRBS3_Y304]
phosphorylation enrichment [1]: 4.16
phosphorylation enrichment [2]: 17.9
phosphorylation enrichment [3]: 18.5
phosphorylation enrichment [4]: 20.5
phosphorylation enrichment [5]: 1.11
phosphorylation enrichment [6]: 4.65
phosphorylation enrichment [7]: 5.75
phosphorylation enrichment [8]: 6.6
phosphorylation enrichment [9]: 3.92
phosphorylation enrichment [10]: 6.46
phosphorylation enrichment [11]: 16.8
phosphorylation enrichment [12]: 0.986
phosphorylation enrichment [13]: 1.95

SH2 binding enrichment [14]: 0.49
SH2 binding enrichment [15]: 0.791
SH2 binding enrichment [16]: 0.794
Sequence: AGVIIYTSRFQ [PFAS_Y538_A535V]
phosphorylation enrichment [1]: 0.429
phosphorylation enrichment [2]: 0.636
phosphorylation enrichment [3]: 0.679
phosphorylation enrichment [4]: 0.631
phosphorylation enrichment [5]: 1.42
phosphorylation enrichment [6]: 0.578
phosphorylation enrichment [7]: 0.87
phosphorylation enrichment [8]: 0.649
phosphorylation enrichment [9]: 1.05
phosphorylation enrichment [10]: 0.664
phosphorylation enrichment [11]: 0.792
phosphorylation enrichment [12]: 0.522
phosphorylation enrichment [13]: 0.574

SH2 binding enrichment [14]: 0.747
SH2 binding enrichment [15]: 0.91
SH2 binding enrichment [16]: 0.598
Sequence: HEKKVYSFCGT [RPS6KA3_Y226_A225V]
phosphorylation enrichment [1]: 0.881
phosphorylation enrichment [2]: 0.736
phosphorylation enrichment [3]: 0.74
phosphorylation enrichment [4]: 0.68
phosphorylation enrichment [5]: 1.03
phosphorylation enrichment [6]: 0.742
phosphorylation enrichment [7]: 0.692
phosphorylation enrichment [8]: 0.58
phosphorylation enrichment [9]: 0.991
phosphorylation enrichment [10]: 0.645
phosphorylation enrichment [11]: 0.842
phosphorylation enrichment [12]: 0.838
phosphorylation enrichment [13]: 0.431

SH2 binding enrichment [14]: 0.522
SH2 binding enrichment [15]: 0.828
SH2 binding enrichment [16]: 0.701
Sequence: LYSGDCYRIQG [DDR2_Y740_Y740C]
phosphorylation enrichment [1]: 6.98
phosphorylation enrichment [2]: 1.8
phosphorylation enrichment [3]: 0.956
phosphorylation enrichment [4]: 1.3
phosphorylation enrichment [5]: 1.18
phosphorylation enrichment [6]: 1.22
phosphorylation enrichment [7]: 1.04
phosphorylation enrichment [8]: 1.18
phosphorylation enrichment [9]: 1.05
phosphorylation enrichment [10]: 1.16
phosphorylation enrichment [11]: 1.11
phosphorylation enrichment [12]: 0.808
phosphorylation enrichment [13]: 0.73

SH2 binding enrichment [14]: 0.365
SH2 binding enrichment [15]: 0.781
SH2 binding enrichment [16]: 0.629
Sequence: ISSLDYISKSK [VAV3_Y294_T298S]
phosphorylation enrichment [1]: 0.482
phosphorylation enrichment [2]: 0.38
phosphorylation enrichment [3]: 0.458
phosphorylation enrichment [4]: 0.467
phosphorylation enrichment [5]: 0.688
phosphorylation enrichment [6]: 0.478
phosphorylation enrichment [7]: 0.743
phosphorylation enrichment [8]: 0.431
phosphorylation enrichment [9]: 0.648
phosphorylation enrichment [10]: 0.443
phosphorylation enrichment [11]: 0.587
phosphorylation enrichment [12]: 0.81
phosphorylation enrichment [13]: 0.443

SH2 binding enrichment [14]: 1.58
SH2 binding enrichment [15]: 0.955
SH2 binding enrichment [16]: 1.27
Sequence: QRRNVYYYSYL [PTEN_Y176_Y174N]
phosphorylation enrichment [1]: 16
phosphorylation enrichment [2]: 5.79
phosphorylation enrichment [3]: 16.4
phosphorylation enrichment [4]: 3.05
phosphorylation enrichment [5]: 1.41
phosphorylation enrichment [6]: 8.15
phosphorylation enrichment [7]: 8.42
phosphorylation enrichment [8]: 9.83
phosphorylation enrichment [9]: 1.72
phosphorylation enrichment [10]: 7.54
phosphorylation enrichment [11]: 11.6
phosphorylation enrichment [12]: 1.15
phosphorylation enrichment [13]: 2.77

SH2 binding enrichment [14]: 0.571
SH2 binding enrichment [15]: 0.873
SH2 binding enrichment [16]: 0.731
Sequence: DPEATYTTSGS [EPHA2_Y772_G777S]
phosphorylation enrichment [1]: 0.34
phosphorylation enrichment [2]: 0.476
phosphorylation enrichment [3]: 0.425
phosphorylation enrichment [4]: 0.518
phosphorylation enrichment [5]: 0.981
phosphorylation enrichment [6]: 0.633
phosphorylation enrichment [7]: 0.694
phosphorylation enrichment [8]: 0.518
phosphorylation enrichment [9]: 0.889
phosphorylation enrichment [10]: 0.598
phosphorylation enrichment [11]: 0.596
phosphorylation enrichment [12]: 0.617
phosphorylation enrichment [13]: 0.48

SH2 binding enrichment [14]: 0.435
SH2 binding enrichment [15]: 0.9
SH2 binding enrichment [16]: 0.94
Sequence: ANVIHYFPTQA [SLC25A4_Y81_R80H]
phosphorylation enrichment [1]: 0.456
phosphorylation enrichment [2]: 0.528
phosphorylation enrichment [3]: 0.487
phosphorylation enrichment [4]: 0.415
phosphorylation enrichment [5]: 0.652
phosphorylation enrichment [6]: 0.515
phosphorylation enrichment [7]: 0.794
phosphorylation enrichment [8]: 0.483
phosphorylation enrichment [9]: 0.623
phosphorylation enrichment [10]: 0.446
phosphorylation enrichment [11]: 0.56
phosphorylation enrichment [12]: 0.806
phosphorylation enrichment [13]: 0.393
